{"source": "patent US7374920B2", "about": "“Ginkgo biloba levopimaradiene synthase” (priority 2001, dated 2008)", "molecules": {"B1": {"name": "Leu^80: Ginkgo biloba levopimaradiene synthase truncated at Arg^79-Leu^80; amino acid sequence SEQ.ID.NO:37 (protein, listed as Ginkgo biloba)", "chain": "MLNADYHPAVWKDDFIDSLTSPNSHATSKSSVDETINKRIQTLVKEIQCMFQSMGDGETNPSAYDTAWVARIPSIDGSGAPQFPQTLQWILNNQLPDGSWGEECIFLAYDRVLNTLACLLTLKIWNKGDIQVQKGVEFVRKHMEEMKDEADNHRPSGFEVVFPAMLDEAKSLGLDLPYHLPFISQIHQKRQKKLQKIPLNVLHNHQTALLYSLEGLQDVVDWQEITNLQSRDGSFLSSPASTACVFMHTQNKRCLHFLNFVLSKFGDYVPCHYPLDLFERLWAVDTVERLGIDRYFKKEIKESLDYVYRYWDAERGVGWARCNPIPDVDDTAMGLRILRLHGYNVSSDVLENFRDEKGDFFCFAGQTQIGVTDNLNLYRCSQVCFPGEKIMEEAKTFTTNHLQNALAKNNAFDKWAVKKDLPGEVEYAIKYPWHRSMPRLEARSYIEQFGSNDVWLGKTVYKMLYVSNEKYLELAKLDFNMVQALHQKETQHIVSWWRESGFNDLTFTRQRPVEMYFSVAVSMFEPEFAACRIAYAKTSCLAVILDDLYDTHGSLDDLKLFSEAVRRWDISVLDSVRDNQLKVCFLGLYNTVNGFGKDGLKEQGRDVLGYLRKVWEGLLASYTKEAEWSAAKYVPTFNEYVENAKVSIALATVVLNSIFFTGELLPDYILQQVDLRSKFLHLVSLTGRLINDTKTYQAERNRGELVSSVQCYMRENPECTEEEALSHVYGIIDNALKELNWELANPASNAPLCVRRLLFNTARVMQLFYMYRDGFGISDKEMKDHVSRTLFDPVA"}, "B2": {"name": "Levopimaradiene synthase: enzyme which catalyzes the synthesis of levopimaradiene from geranylgeranyl diphosphate; SEQ.ID.NO:2 (protein, listed as Ginkgo biloba)", "chain": "MAGVLFANLPCSLQLSPKVPFRQSTNILIPFHKRSSFGFNAQHCVRSHLRLRWNCVGIHASAAETRPDQLPQEERFVSRLNADYHPAVWKDDFIDSLTSPNSHATSKSSVDETINKRIQTLVKEIQCMFQSMGDGETNPSAYDTAWVARIPSIDGSGAPQFPQTLQWILNNQLPDGSWGEECIFLAYDRVLNTLACLLTLKIWNKGDIQVQKGVEFVRKHMEEMKDEADNHRPSGFEVVFPAMLDEAKSLGLDLPYHLPFISQIHQKRQKKLQKIPLNVLHNHQTALLYSLEGLQDVVDWQEITNLQSRDGSFLSSPASTACVFMHTQNKRCLHFLNFVLSKFGDYVPCHYPLDLFERLWAVDTVERLGIDRYFKKEIKESLDYVYRYWDAERGVGWARCNPIPDVDDTAMGLRILRLHGYNVSSDVLENFRDEKGDFFCFAGQTQIGVTDNLNLYRCSQVCFPGEKIMEEAKTFTTNHLQNALAKNNAFDKWAVKKDLPGEVEYAIKYPWHRSMPRLEARSYIEQFGSNDVWLGKTVYKMLYVSNEKYLELAKLDFNMVQALHQKETQHIVSWWRESGFNDLTFTRQRPVEMYFSVAVSMFEPEFAACRIAYAKTSCLAVILDDLYDTHGSLDDLKLFSEAVRRWDISVLDSVRDNQLKVCFLGLYNTVNGFGKDGLKEQGRDVLGYLRKVWEGLLASYTKEAEWSAAKYVPTFNEYVENAKVSIALATVVLNSIFFTGELLPDYILQQVDLRSKFLHLVSLTGRLINDTKTYQAERNRGELVSSVQCYMRENPECTEEEALSHVYGIIDNALKELNWELANPASNAPLCVRRLLFNTARVMQLFYMYRDGFGISDKEMKDHVSRTLFDPVA"}}, "key": {"[1]": {"experiment": "in vitro enzymatic assay of levopimaradiene synthase constructs expressed in E. coli BL21(DE3)", "type": "biochemical, Escherichia coli", "procedure": "The desired plasmids were prepared by ligating the mutated gene insert into the similarly digested vectors pET32c(+) (Novagen; Madison, Wis.) and pRS426GAL (Hua, 2000), a multiple copy yeast expression vector. These plasmids was expressed in E. coli BL21(DE3) (Novagen; Madison, Wis.). E. coli cells were grown in Luria-Bertani medium supplemented with 100 μg/mL ampicillin at 37° C. with shaking to OD600 ˜0.6. The following parameters were tested: isopropyl 1-thio-β-D-galactopyranoside (IPTG) concentration (50, 100, 250, 500, and 1000 μM); and temperature and time (20° C. for 2, 3, 4, 6, 21 hours, 22° C. for 6, 8, 16, 19, 22, 45 hours, and 30° C. for 3, 6 hours). The following assay conditions were tested to obtain maximum diterpene product yield: 30 mM HEPES (N-2-hydroxyethylpiperazine-N′-[…]), pH 6.9, 7.2, 7.6, 8.0; 30 mM Tris (tris(hydroxymethyl)aminomethane hydrochloride), pH 7.4, 7.8, 8.2; 1, 5, 10% glycerol; 1, 3, 5, 10, 20 mM DTT (dithiothreitol); 20 mM β-mercaptoethanol; 2, 5, 8% Triton X-100; 5% Tween 80; 0, 2, 7.5, 20, 50 mM MgCl2; 0, 30, 500, 1000 μM MnCl2; 2, 10, 13.3, 20, 40, 80, 200 μM GGDP; and 23° C. and 32° C. assay temperatures.\nOptimal soluble protein production and diterpene yield were obtained with the following conditions. Cell cultures were induced with 1 mM IPTG at 20° C. with shaking for 6 hours and lysed by sonication in 30 mM HEPES, pH 7.2, 5 mM DTT, and 5% glycerol. The soluble fraction of the lysate (100 mg/mL) was incubated with 20 μM GGDP in 30 mM HEPES, pH 7.2, 5 mM DTT, 5% glycerol, 2 mM MgCl2, and 500 μM MnCl2 overnight at 32° C.\n(§1) All in vitro reactions were extracted 3× with hexane and dried over MgSO4. The reaction was further extracted twice with diethyl ether and dried over MgSO4. Thereafter, the crude lysate was suspended in 100 mM Tris, pH 8.0 containing 2.9 units/mg apyrase (a dephosphorylating agent) and 10 units/μL calf intestinal alkaline phosphatase, incubated at 30° C. for 3 hours, and extracted with diethyl ether as noted above (Croteau and Cane, 1985). The crude reaction mixtures were eluted over SiO2, concentrated, and analyzed by GC and GC/MS.\n(§2) Gas chromatography spectra were obtained on a Hewlett Packard 6890 Series GC System equipped with an Rtx-5 capillary column (Restek, 30 m×0.25 mm i.d., 0.10 μm df). The following separation conditions and temperature program were employed: injector port 250° C., FID 250° C., split ratio 39:1, helium flow 20 cm/s (0.6 mL/min), 150° C. hold 5 min, increase to 250° C. (5° C./min), hold 5 min. GC/MS spectra were obtained on a Hewlett-Packard 5890A instrument with a 30-m DB-5 ms column (J&W Scientific Inc., 0.25 mm i.d., 0.10 μm df). The following separation conditions and temperature program were employed: injector port 280° C., transfer lines: 280° C., helium flow at 30 cm/s (1 mL/min) with splitless injection at 150° C. hold 3 min, increase to 250° C. (5° C./min), hold 5 min. Mass spectra (m/z 50 to 500) were obtained on a VG ZAB-HF reverse-geometry double-focusing instrument at 70 eV with an electron-impact ion source (200° C.). Accelerating voltage was set to 8 kV and the resolution was 1000 (10% valley).\nThe skilled artisan recognizes that lysis and assay conditions should be optimized. Examples of parameters that can be adjusted to optimize conditions include altering buffer, pH, reductant, reductant concentration, metal cofactors, cofactor concentrations, glycerol concentrations, substrate concentrations, and assay temperatures. […] Maximum soluble protein production and diterpene yield were obtained with the following conditions. Cell cultures were induced with 1 mM IPTG at 20° C. with shaking for 6 hours and lysed by sonication in 30 mM HEPES, pH 7.2, 5 mM DTT, and 5% glycerol. The soluble fraction of the lysate (100 mg/1 mL) was incubated with 20 μM GGDP in 30 mM HEPES, pH 7.2, 5 mM DTT, 5% glycerol, 2 mM MgCl2, and 500 μM MnCl2 overnight at 32° C. […]"}, "[2]": {"tested_on": "EHY18 yeast cells", "experiment": "in vivo expression of GbLS constructs in yeast strain EHY18 that accumulates GGDP, GC quantitation of products", "type": "cell-based", "procedure": "The yeast strain of the copending application employed was EHY18 (Hart, E., 2001) which was further transformed with multiple-copy yeast expression vectors comprising an isolated and purified nucleic acid sequence of GbLS or derivatives thereof, which are described herein under control of the GAL1 inducible promoter. Yeast cells were grown to saturation in 5 mL ScD-Leu-Ura at 30° C. Cells were harvested (1300×g, 2 min, 25° C.) and resuspended in 500 μL sterile Milli-Q H2O (2×). The washed cells were resuspended in 5 mL sterile Milli-Q H2O. An aliquot of the culture (5 μL) was added to a 25 mL Corex tube containing pre-prepared 2× resin and 5 mL ScG-Leu-Ura (4% galactose) and shaken at 30° C. for 6 days. Resin was collected by filtration through a Kontes chromatography column (1.7 cm diameter) and rinsed with dI H2O until eluent was clear. The resin was incubated in 2 mL ethanol for several minutes, eluted, and repeated 2×. The combined eluents were dissolved in approximately 3 mL dI H2O and extracted (3×) with 3 mL hexane. The combined extracts were concentrated under a stream of nitrogen. GC analysis (quantitation extrapolated from 0.2 mg/mL longifolene external standard) indicated the following product profile (obtained from triplicate measurement of three cultures): 0.61±0.20 mg/L levopimaradiene, 0.04±0.01 mg/L abietadiene, 0.15±0.05 mg/L abietatriene, 0.16±0.13 mg/L (+)-copalol, and 1.79±0.90 mg/L geranylgeraniol. GC/MS fragmentation confirmed the identity of each compound.\nA large scale culture (1-L) was prepared by growing the yeast cells to saturation in 5 mL ScD-Leu-Ura at 30° C. Cells were harvested (1300×g, 2 min, 25° C.) and resuspended in 500 μL sterile Milli-Q H2O (2×). The washed cells were resuspended in 5 mL sterile Milli-Q H2O. An aliquot of the culture (1 mL) was added to a 2 L flask containing 1-L ScG-Leu-Ura (4% galactose) and 88.27 g resin in 120 mL Milli-Q H2O (pre-prepared). The resin was eluted with ethanol (3×100 mL with 20 min incubation periods), which was subsequently extracted (6×) with hexane. The combined extracts were dried over magnesium sulfate, filtered, and concentrated under reduced pressure. GC analysis (quantitation extrapolated from 0.2 mg/mL longifolene external standard) indicated the following product profile (obtained from triplicate measurement): 0.29±0.04 mg/L levopimaradiene, 0.04±0.02 mg/L abietadiene, 0.13±0.04 mg/L abietatriene, 0.11±0.02 mg/L (+)-copalol, and 0.56±0.03 mg/L geranylgeraniol. GC/MS analyses confirmed the production of the above noted diterpenes, which included hydrocarbons and an alcohol.\nFurther optimization studies employed the Ser61 construct. Factors influencing diterpene production included induction period and concentration of galactose and resin in the inducing medium."}, "[3]": {"experiment": "in vitro assay of levopimaradiene synthase constructs expressed in wild-type S. cerevisiae JBY575", "type": "biochemical, Saccharomyces cerevisiae", "settings": "wild-type S. cerevisiae JBY575, galactose 48 hours, lysate with GGDP", "procedure": "Expression in S. cerevisiae JBY575, which represents wild-type yeast, was observed. JBY575 cells transformed with pRS426GAL inserted with the putative levopimaradiene synthase were grown in synthetic complete medium lacking uracil and supplemented with 2% glucose and 1.5% agar at 30° C. to saturation and induced with galactose for 48 hours. Cells were harvested, resuspended in lysis buffer, and mixed by vortexing over glass beads. The lysate was assayed with 60 μM GGDP in the presence and absence of 0.2% and 5% Triton X-100.\nas §1, §2\nThe skilled artisan recognizes that lysis and assay conditions should be optimized. Examples of parameters that can be adjusted to optimize conditions include altering buffer, pH, reductant, reductant concentration, metal cofactors, cofactor concentrations, glycerol concentrations, substrate concentrations, and assay temperatures. […] Maximum soluble protein production and diterpene yield were obtained with the following conditions. Cell cultures were induced with 1 mM IPTG at 20° C. with shaking for 6 hours and lysed by sonication in 30 mM HEPES, pH 7.2, 5 mM DTT, and 5% glycerol. The soluble fraction of the lysate (100 mg/1 mL) was incubated with 20 μM GGDP in 30 mM HEPES, pH 7.2, 5 mM DTT, 5% glycerol, 2 mM MgCl2, and 500 μM MnCl2 overnight at 32° C. Yeast expression was induced with galactose at 30° C. for 48 hours and the cells were lysed and assayed according to the conditions noted."}}, "note": "“Also recorded” adds a separate entry of the source."}
{"molecule": "B1", "values": [{"measurement": "diterpene product on bacterial expression", "setting": "[1]; E. coli BL21(DE3), soluble lysate fraction, 20 μM GGDP, overnight at 32° C., GC and GC/MS", "result": "produced levopimaradiene as the exclusive diterpene hydrocarbon; also recorded: provided enzymatic activity capable of cyclizing geranylgeranyl diphosphate to levopimaradiene"}, {"measurement": "diterpene production relative to wild-type synthase", "setting": "[2]; EHY18", "result": "approximately four"}, {"measurement": "diterpene products on expression in EHY18", "setting": "[2]; GC, GC/MS", "result": "produced (+)-copalol, levopimaradiene, abietadiene, and abietatriene"}, {"measurement": "diterpene product on yeast expression", "setting": "[3]", "result": "yielded levopimaradiene as the sole diterpene; also recorded: yielded levopimaradiene synthase activity"}]}
{"molecule": "B2", "values": [{"measurement": "metal cofactor requirement of synthase activity", "setting": "[1]; MgCl2 and MnCl2 varied", "result": "independent of magnesium but required manganese cofactor for catalysis"}, {"measurement": "increase in levopimaradiene yield relative to the bacterial expression system", "setting": "[2]; EHY18", "result": "three- to six"}]}
